Reference: PMC11272584 (Nature Metabolism, 2024)
Changes are numbered by the printed parent chain.

How the values were obtained:
GIPR T168A (human) = target: T1, GIPR T168A (human) (UniProt P48546)
T1 sequence: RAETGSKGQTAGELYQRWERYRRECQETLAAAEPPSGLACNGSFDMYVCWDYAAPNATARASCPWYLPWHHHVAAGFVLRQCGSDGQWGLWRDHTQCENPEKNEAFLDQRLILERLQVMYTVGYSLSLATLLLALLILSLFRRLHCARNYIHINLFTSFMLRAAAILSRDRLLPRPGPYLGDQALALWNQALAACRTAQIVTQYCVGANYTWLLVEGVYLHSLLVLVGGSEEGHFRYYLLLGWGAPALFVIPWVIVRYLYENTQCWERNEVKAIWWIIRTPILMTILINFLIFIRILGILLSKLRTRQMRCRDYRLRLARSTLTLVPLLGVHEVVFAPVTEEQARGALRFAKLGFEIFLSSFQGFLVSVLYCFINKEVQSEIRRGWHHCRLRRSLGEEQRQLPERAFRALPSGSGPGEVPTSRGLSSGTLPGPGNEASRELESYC

GIPR E288G (human) = target: T2, GIPR E288G (human) (UniProt P48546)
T2 sequence: T1 sequence with A147T, E267G

GIPR T25R (human) = target: T3, GIPR T25R (human) (UniProt P48546)
T3 sequence: T1 sequence with T4R, A147T

GIPR R336P (human) = target: T4, GIPR R336P (human) (UniProt P48546)
T4 sequence: T1 sequence with A147T, R315P

GIPR V99I (human) = target: T5, GIPR V99I (human) (UniProt P48546)
T5 sequence: T1 sequence with V78I, A147T

GIPR A207V (human) = target: T6, GIPR A207V (human) (UniProt P48546)
T6 sequence: T1 sequence with A147T, A186V

β-arrestin 2 recruitment (BRET) on stimulation with GIP(1-42): logEC50 (Arrestin) (log M (inferred)) (GIPR T168A (human)): -9.27
β-arrestin 2 recruitment (BRET) on stimulation with GIP(1-42): logEC50 (Arrestin) (log M (inferred)) (GIPR E288G (human)): -9.15
β-arrestin 2 recruitment (BRET) on stimulation with GIP(1-42): logEC50 (Arrestin) (log M (inferred)) (GIPR T25R (human)): -9.3
β-arrestin 2 recruitment (BRET) on stimulation with GIP(1-42): logEC50 (Arrestin) (log M (inferred)) (GIPR R336P (human)): -8.82
β-arrestin 2 recruitment (BRET) on stimulation with GIP(1-42): logEC50 (Arrestin) (log M (inferred)) (GIPR V99I (human)): -8.93
β-arrestin 2 recruitment (BRET) on stimulation with GIP(1-42): logEC50 (Arrestin) (log M (inferred)) (GIPR A207V (human)): -9.42
Substance: β-arrestin 2 (Rluc8-Arrestin-3-Sp1) (from UniProt P32121 1-409) (natural protein)
